Experimental data from paper PMC3744425.

Target: Ubiquitin-7-amino-4-methylcoumarin (human) (UniProt P0CG48)

TYMV PRO E759G/N760G mutant, N-terminally 6-histidine tagged (enzyme)
Kapp (apparent kcat/Km) of Ub-AMC hydrolysis, far from saturating conditions: 2060 M⁻¹ s⁻¹

TYMV PRO I847A mutant, N-terminally 6-histidine tagged (enzyme)
Kapp (apparent kcat/Km) of Ub-AMC hydrolysis, far from saturating conditions: 215 M⁻¹ s⁻¹

TYMV PRO I847D mutant, N-terminally 6-histidine tagged (enzyme)
Kapp (apparent kcat/Km) of Ub-AMC hydrolysis, far from saturating conditions: 14 M⁻¹ s⁻¹

TYMV PRO L732A/L765A mutant, N-terminally 6-histidine tagged (enzyme)
Kapp (apparent kcat/Km) of Ub-AMC hydrolysis, far from saturating conditions: 2510 M⁻¹ s⁻¹

Turnip yellow mosaic virus (TYMV) PRO domain, N-terminally 6-histidine tagged, wild type (enzyme)
Kapp (apparent kcat/Km) of Ub-AMC hydrolysis, far from saturating conditions: 2650 M⁻¹ s⁻¹
